Blank lines part the entries; values can stand above or below the sequence they belong to.
Tests used:
HLA-B*40:01 = assay: IEDB peptide-MHC binding, purified MHC/direct/fluorescence; filed as Kd, often an IC50 or EC50 that approximates it; ≥ and ≤ were set here for values at or beyond the usual limits of such assays
HLA-A*11:01 [1] = assay: as above
HLA-B*35:01 = assay: as above
HLA-A*01:01 = assay: as above
HLA-A*03:01 = assay: as above
HLA-A*26:01 = assay: as above
HLA-B*15:01 [2] = assay: as above
HLA-B*27:05 = assay: as above
HLA-B*58:01 = assay: as above
HLA-A*69:01 = assay: as above
HLA-B*07:02 [3] = assay: as above
HLA-B*08:01 [4] = assay: as above
HLA-A*02:01 [5] = assay: as above
HLA-A*31:01 [6] = assay: as above
HLA-B*44:02 = assay: as above; details: source organism: Escherichia coli O157:H7
HLA-A*24:03 = assay: as above
HLA-A*02:06 = assay: IEDB peptide-MHC binding, purified MHC/competitive/fluorescence; filed as Kd, often an IC50 or EC50 that approximates it; ≥ and ≤ were set here for values at or beyond the usual limits of such assays
HLA-B*18:01 [7] = assay: as above; details: source organism: Vibrio vulnificus YJ016
HLA-B*15:17 = assay: IEDB peptide-MHC binding, purified MHC/direct/fluorescence; filed as Kd, often an IC50 or EC50 that approximates it; ≥ and ≤ were set here for values at or beyond the usual limits of such assays
HLA-B*57:01 = assay: as above
HLA-A*68:02 = assay: as above
HLA-B*08:03 = assay: as above
HLA-B*15:09 = assay: as above; details: source organism: Vibrio vulnificus CMCP6
HLA-A*23:01 = assay: as above; details: source organism: Vibrio vulnificus YJ016
HLA-A*11:01 [8] = assay: IEDB peptide-MHC binding, purified MHC/competitive/fluorescence; ≥ and ≤ were set here for values at or beyond the usual limits of such assays; details: source organism: Zaire ebolavirus
HLA-B*08:01 [9] = assay: as above
HLA-A*26:02 = assay: IEDB peptide-MHC binding, purified MHC/competitive/fluorescence; filed as Kd, often an IC50 or EC50 that approximates it; ≥ and ≤ were set here for values at or beyond the usual limits of such assays; details: source organism: Salmonella enterica subsp. enterica serovar Enteritidis
HLA-B*48:01 = assay: IEDB peptide-MHC binding, purified MHC/direct/fluorescence; filed as Kd, often an IC50 or EC50 that approximates it; ≥ and ≤ were set here for values at or beyond the usual limits of such assays; details: source organism: Salmonella enterica
HLA-A*02:11 = assay: as above; details: source organism: Salmonella enterica subsp. enterica serovar Typhimurium str. LT2
HLA-A*02:19 = assay: as above; details: source organism: Salmonella enterica subsp. enterica serovar Typhimurium str. LT2
HLA-B*46:01 = assay: as above; details: source organism: Salmonella enterica
HLA-B*18:01 [10] = assay: as above; details: source organism: Salmonella enterica
HLA-B*15:42 = assay: IEDB peptide-MHC binding, purified MHC/competitive/fluorescence; filed as Kd, often an IC50 or EC50 that approximates it; ≥ and ≤ were set here for values at or beyond the usual limits of such assays; details: source organism: Giardia lamblia ATCC 50803
HLA-B*83:01 = assay: as above; details: source organism: Giardia lamblia ATCC 50803
HLA-B*45:06 = assay: as above; details: source organism: Giardia lamblia ATCC 50803
HLA-A*32:07 = assay: as above; details: source organism: Giardia lamblia ATCC 50803
HLA-A*31:01 [11] = assay: as above; details: source organism: Giardia lamblia ATCC 50803
HLA-B*15:01 [12] = assay: IEDB peptide-MHC binding, purified MHC/competitive/fluorescence; ≥ and ≤ were set here for values at or beyond the usual limits of such assays; details: source organism: Zaire ebolavirus
HLA-A*24:02 = assay: as above
HLA-B*07:02 [13] = assay: as above
HLA-A*02:01 [14] = assay: as above; details: source organism: Zaire ebolavirus
HLA-A*30:01 = assay: IEDB peptide-MHC binding, purified MHC/direct/fluorescence; filed as Kd, often an IC50 or EC50 that approximates it; ≥ and ≤ were set here for values at or beyond the usual limits of such assays; details: source organism: Corynebacterium glutamicum
[15] = source organism: Escherichia coli O157:H7
[16] = source organism: Salmonella enterica subsp. enterica serovar Typhimurium
[17] = source organism: Escherichia coli
[18] = source organism: Vibrio vulnificus YJ016
[19] = source organism: Vibrio vulnificus CMCP6
[20] = source organism: Zaire ebolavirus
[21] = source organism: Salmonella enterica
[22] = source organism: Corynebacterium glutamicum

Sequence: ATISYRIKL
- Kd (HLA-B*40:01; [15]): ≥ 20 µM
- Kd (HLA-A*11:01 [1]; [16]): 0.0546 µM
- Kd (HLA-B*35:01; [16]): 0.542 µM
- Kd (HLA-A*01:01; [15]): ≥ 20 µM
- Kd (HLA-A*03:01; [15]): ≥ 20 µM
- Kd (HLA-A*26:01; [16]): 2.64 µM
- Kd (HLA-B*15:01 [2]; [15]): ≥ 20 µM
- Kd (HLA-B*27:05; [15]): ≥ 20 µM
- Kd (HLA-B*58:01; [15]): ≥ 20 µM
- Kd (HLA-A*69:01; [16]): 0.0558 µM
- Kd (HLA-B*07:02 [3]; [15]): ≥ 20 µM
- Kd (HLA-B*08:01 [4]; [15]): ≥ 20 µM
- Kd (HLA-A*02:01 [5]; [16]): 0.106 µM
- Kd (HLA-A*31:01 [6]; [15]): ≥ 20 µM
- Kd (HLA-B*44:02): ≥ 20 µM

- Kd (HLA-B*40:01; [15]): ≥ 20 µM
- Kd (HLA-A*11:01 [1]; [15]): ≥ 20 µM
- Kd (HLA-B*35:01; [15]): 0.105 µM
- Kd (HLA-A*01:01; [15]): ≥ 20 µM
- Kd (HLA-A*03:01; [15]): ≥ 20 µM
- Kd (HLA-A*26:01; [15]): 6.55 µM
- Kd (HLA-B*15:01 [2]; [15]): ≥ 20 µM
- Kd (HLA-B*27:05; [15]): ≥ 20 µM
- Kd (HLA-B*58:01; [15]): ≥ 20 µM
- Kd (HLA-A*69:01; [15]): 0.0148 µM
- Kd (HLA-B*07:02 [3]; [15]): ≥ 20 µM
- Kd (HLA-B*08:01 [4]; [15]): ≥ 20 µM
- Kd (HLA-A*02:01 [5]; [15]): ≥ 20 µM
- Kd (HLA-A*31:01 [6]; [15]): ≥ 20 µM
- Kd (HLA-B*44:02): ≥ 20 µM
Sequence: DISPTNIPL

- Kd (HLA-B*40:01; [15]): ≥ 20 µM
- Kd (HLA-A*11:01 [1]; [15]): ≥ 20 µM
- Kd (HLA-B*35:01; [17]): 0.0994 µM
- Kd (HLA-A*24:03; [17]): ≥ 20 µM
- Kd (HLA-A*01:01; [15]): ≥ 20 µM
- Kd (HLA-A*03:01; [15]): ≥ 20 µM
- Kd (HLA-A*26:01; [15]): ≥ 20 µM
- Kd (HLA-B*15:01 [2]; [15]): ≥ 20 µM
- Kd (HLA-B*27:05; [15]): ≥ 20 µM
- Kd (HLA-B*58:01; [15]): ≥ 20 µM
- Kd (HLA-A*69:01; [15]): ≥ 20 µM
- Kd (HLA-B*07:02 [3]; [17]): 7.81 µM
- Kd (HLA-B*08:01 [4]; [15]): ≥ 20 µM
- Kd (HLA-A*02:01 [5]; [15]): ≥ 20 µM
- Kd (HLA-A*31:01 [6]; [15]): ≥ 20 µM
- Kd (HLA-B*44:02): ≥ 20 µM
Sequence: DPRDDLSGM

Sequence: GWPDNYCEW
- Kd (HLA-A*02:06; [18]): 2.17 µM
- Kd (HLA-B*18:01 [7]): 2.29 µM
- Kd (HLA-A*11:01 [1]; [18]): ≥ 20 µM
- Kd (HLA-B*15:17; [18]): ≥ 20 µM
- Kd (HLA-B*57:01; [18]): ≥ 20 µM
- Kd (HLA-A*24:03; [18]): 0.0067 µM
- Kd (HLA-A*68:02; [18]): ≥ 20 µM
- Kd (HLA-A*01:01; [18]): ≥ 20 µM
- Kd (HLA-A*26:01; [19]): ≥ 20 µM
- Kd (HLA-B*15:01 [2]; [18]): ≥ 20 µM
- Kd (HLA-B*58:01; [18]): ≥ 20 µM
- Kd (HLA-A*69:01; [18]): ≥ 20 µM
- Kd (HLA-B*08:03; [19]): ≥ 20 µM
- Kd (HLA-B*07:02 [3]; [18]): ≥ 20 µM
- Kd (HLA-B*08:01 [4]; [19]): ≥ 20 µM
- Kd (HLA-A*02:01 [5]; [18]): ≥ 20 µM
- Kd (HLA-B*15:09): ≥ 20 µM
- Kd (HLA-A*31:01 [6]; [18]): ≥ 20 µM
- Kd (HLA-A*23:01): 0.225 µM

Sequence: HRTIHHASA
- IC50 (HLA-A*11:01 [8]): ≥ 156 µM
- IC50 (HLA-B*08:01 [9]; [20]): ≥ 138 µM

Sequence: MGKTITDVK
- Kd (HLA-A*02:06; source organism: Salmonella enterica subsp. enterica serovar Enteritidis): 0.289 µM
- Kd (HLA-A*26:02): 2.74 µM
- Kd (HLA-B*48:01): ≥ 20 µM
- Kd (HLA-A*02:11): ≥ 20 µM
- Kd (HLA-B*40:01; [21]): ≥ 20 µM
- Kd (HLA-A*11:01 [1]; [21]): 0.42 µM
- Kd (HLA-A*02:19): 6 µM
- Kd (HLA-B*46:01): ≥ 20 µM
- Kd (HLA-B*15:17; [21]): ≥ 20 µM
- Kd (HLA-B*57:01; [21]): ≥ 20 µM
- Kd (HLA-B*18:01 [10]): ≥ 20 µM
- Kd (HLA-A*68:02; [21]): ≥ 20 µM
- Kd (HLA-A*01:01; [21]): ≥ 20 µM
- Kd (HLA-A*03:01; [21]): ≥ 20 µM
- Kd (HLA-B*15:01 [2]; [21]): ≥ 20 µM
- Kd (HLA-B*27:05; [21]): ≥ 20 µM
- Kd (HLA-B*58:01; [21]): ≥ 20 µM
- Kd (HLA-B*08:03; source organism: Salmonella enterica subsp. enterica serovar Typhimurium str. LT2): ≥ 20 µM
- Kd (HLA-B*07:02 [3]; [21]): ≥ 20 µM
- Kd (HLA-A*02:01 [5]; [21]): ≥ 20 µM
- Kd (HLA-A*31:01 [6]; [21]): 1.57 µM

Sequence: NIKHKERIP
- IC50 (HLA-B*08:01 [9]; source organism: Vaccinia virus Copenhagen): ≥ 292 µM

Sequence: RLYPFGSYY
- Kd (HLA-B*15:42): ≥ 5 µM
- Kd (HLA-B*83:01): ≥ 5 µM
- Kd (HLA-B*45:06): ≥ 5 µM
- Kd (HLA-A*32:07): 0.0041 µM
- Kd (HLA-A*31:01 [11]): 0.0313 µM
- Kd (HLA-A*03:01; source organism: Giardia lamblia ATCC 50803): ≤ 0.001 µM

Sequence: TIHHASAPL
- IC50 (HLA-A*11:01 [8]): ≥ 85 µM
- IC50 (HLA-B*15:01 [12]): 14.4 µM
- IC50 (HLA-A*24:02; [20]): 46.9 µM
- IC50 (HLA-B*07:02 [13]; [20]): 14.7 µM
- IC50 (HLA-B*08:01 [9]; [20]): ≥ 126 µM
- IC50 (HLA-A*02:01 [14]): 5.58 µM

Sequence: TPKAQREIF
- IC50 (HLA-A*24:02; source organism: Variola virus): 14.1 µM
- IC50 (HLA-B*07:02 [13]; source organism: Variola virus): 16.1 µM
- IC50 (HLA-B*08:01 [9]; source organism: Variola virus): ≥ 142 µM

- Kd (HLA-B*40:01; [22]): ≥ 20 µM
- Kd (HLA-A*11:01 [1]; [22]): ≥ 20 µM
- Kd (HLA-B*35:01; [22]): 0.0017 µM
- Kd (HLA-A*24:03; [22]): ≥ 20 µM
- Kd (HLA-A*01:01; [22]): ≥ 20 µM
- Kd (HLA-A*03:01; [22]): ≥ 20 µM
- Kd (HLA-A*26:01; [22]): ≥ 20 µM
- Kd (HLA-A*30:01): 7.5 µM
- Kd (HLA-B*15:01 [2]; [22]): ≥ 5 µM
- Kd (HLA-B*27:05; [22]): ≥ 20 µM
- Kd (HLA-B*58:01; [22]): ≥ 20 µM
- Kd (HLA-B*07:02 [3]; [22]): 0.00878 µM
- Kd (HLA-B*08:01 [4]; [22]): 1.28 µM
- Kd (HLA-A*02:01 [5]; [22]): ≥ 20 µM
- Kd (HLA-A*31:01 [6]; [22]): ≥ 20 µM
Sequence: WPALSSIAA
